This note sets out measurements from patent US7078382 (dated 2006).

For assay [1], the target named is KDR receptor with a gD tag at the N-terminus, on CHO cells (UniProt P35968 20-1356). Briefly: cell-based or functional assay.
Assay [2] deals with KDR receptor on human umbilical vein endothelial cells (HUVEC) (human, UniProt P35968 20-1356). As to the kind of experiment: cell-based or functional assay.
In assay [3] the target is KDR receptor (RIA of Example 11) (UniProt P35968 20-764, limits assumed). As to the kind of experiment: RIA essentially as in Muller et al. 1997.
The target of assay [4] is FLT-1 receptor (RIA of Example 11) (UniProt P17948 27-758, limits assumed). As to the kind of experiment: RIA essentially as in Muller et al. 1997.
For the next assay, the target named is T1, Flt-IgG (human, UniProt P17948 27-758, limits assumed).
T1 construct: Only described as 'a chimeric Flt-human Fc molecule'; captured by rabbit F(ab')2 to human IgG Fc; also called chimeric Flt-human Fc molecule; not shown: human IgG Fc
As to the kind of experiment: competition ELISA, biotinylated native VEGF as tracer, Flt-IgG captured by anti-human Fc. A general note: In an ELISA, binding on a coated surface is turned into a signal by an enzyme label.

In the next assay the target is T2, KDR (1-3) (UniProt P35968 20-327, limits assumed).
T2 construct: domain: KDR (1-3); Soluble KDR (1-3) at 1 ug/ml, captured on the plate by anti-KDR monoclonal antibody MAKD5; also called KDR (1-3) monomer
Briefly: competition ELISA, biotinylated native VEGF (8-109) as tracer, KDR (1-3) captured by mAb MAKD5.

Sequence of KDR receptor on human umbilical vein endothelial cells (HUVEC) (P35968 20-1356): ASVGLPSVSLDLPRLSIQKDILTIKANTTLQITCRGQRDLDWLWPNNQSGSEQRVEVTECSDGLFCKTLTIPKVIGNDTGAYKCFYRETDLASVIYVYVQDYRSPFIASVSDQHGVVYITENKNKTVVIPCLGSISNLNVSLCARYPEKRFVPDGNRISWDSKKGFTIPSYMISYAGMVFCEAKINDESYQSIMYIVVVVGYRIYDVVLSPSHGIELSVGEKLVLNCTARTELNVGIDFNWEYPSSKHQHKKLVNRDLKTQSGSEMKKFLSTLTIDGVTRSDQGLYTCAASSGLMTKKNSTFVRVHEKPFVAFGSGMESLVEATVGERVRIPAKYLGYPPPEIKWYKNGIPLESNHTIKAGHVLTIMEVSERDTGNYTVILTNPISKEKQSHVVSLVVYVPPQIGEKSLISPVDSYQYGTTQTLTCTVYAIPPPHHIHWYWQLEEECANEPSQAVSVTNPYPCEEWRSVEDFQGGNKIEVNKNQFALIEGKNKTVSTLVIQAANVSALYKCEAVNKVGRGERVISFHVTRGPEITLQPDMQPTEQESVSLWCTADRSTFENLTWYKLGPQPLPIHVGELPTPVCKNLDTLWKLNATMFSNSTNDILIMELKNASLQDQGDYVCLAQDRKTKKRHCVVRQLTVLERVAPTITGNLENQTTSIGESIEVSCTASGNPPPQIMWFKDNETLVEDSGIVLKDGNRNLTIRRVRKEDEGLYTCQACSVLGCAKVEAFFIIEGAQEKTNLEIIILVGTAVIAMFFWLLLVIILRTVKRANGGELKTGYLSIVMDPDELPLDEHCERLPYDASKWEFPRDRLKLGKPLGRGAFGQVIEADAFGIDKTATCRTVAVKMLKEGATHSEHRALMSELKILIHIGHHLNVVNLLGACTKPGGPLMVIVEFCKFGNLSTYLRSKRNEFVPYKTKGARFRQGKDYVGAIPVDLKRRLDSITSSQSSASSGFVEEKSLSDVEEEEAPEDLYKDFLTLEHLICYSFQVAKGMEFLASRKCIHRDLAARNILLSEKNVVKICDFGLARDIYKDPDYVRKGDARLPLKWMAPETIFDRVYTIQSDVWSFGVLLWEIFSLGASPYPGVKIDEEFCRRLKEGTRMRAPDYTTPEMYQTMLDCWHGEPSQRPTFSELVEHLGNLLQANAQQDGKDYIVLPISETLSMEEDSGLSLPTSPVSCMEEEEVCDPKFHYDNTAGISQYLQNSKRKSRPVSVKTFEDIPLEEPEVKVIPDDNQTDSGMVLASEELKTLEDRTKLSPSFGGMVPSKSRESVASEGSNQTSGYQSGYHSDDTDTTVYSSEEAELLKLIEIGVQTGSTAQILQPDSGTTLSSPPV
T1 sequence (P17948 27-758 limits assumed): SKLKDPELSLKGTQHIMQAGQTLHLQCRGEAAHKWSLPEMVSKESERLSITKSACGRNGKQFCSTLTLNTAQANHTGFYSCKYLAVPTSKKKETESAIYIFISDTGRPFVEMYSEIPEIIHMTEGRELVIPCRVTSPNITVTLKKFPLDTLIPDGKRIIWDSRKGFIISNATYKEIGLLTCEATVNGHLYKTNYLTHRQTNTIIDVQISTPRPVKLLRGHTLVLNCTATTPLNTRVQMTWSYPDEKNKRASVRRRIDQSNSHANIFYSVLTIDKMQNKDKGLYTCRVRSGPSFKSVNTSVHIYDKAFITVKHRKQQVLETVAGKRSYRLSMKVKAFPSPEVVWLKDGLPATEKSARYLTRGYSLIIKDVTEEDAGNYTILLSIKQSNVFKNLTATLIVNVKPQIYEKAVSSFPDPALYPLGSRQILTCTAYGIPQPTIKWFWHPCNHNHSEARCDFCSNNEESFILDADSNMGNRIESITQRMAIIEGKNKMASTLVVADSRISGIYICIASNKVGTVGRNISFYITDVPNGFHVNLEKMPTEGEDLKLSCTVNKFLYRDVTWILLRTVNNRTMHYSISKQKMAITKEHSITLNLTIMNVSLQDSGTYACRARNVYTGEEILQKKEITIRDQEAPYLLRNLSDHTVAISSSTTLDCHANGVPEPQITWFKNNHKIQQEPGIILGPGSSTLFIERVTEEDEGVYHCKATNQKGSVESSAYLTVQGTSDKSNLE
T2 sequence (P35968 20-327 limits assumed): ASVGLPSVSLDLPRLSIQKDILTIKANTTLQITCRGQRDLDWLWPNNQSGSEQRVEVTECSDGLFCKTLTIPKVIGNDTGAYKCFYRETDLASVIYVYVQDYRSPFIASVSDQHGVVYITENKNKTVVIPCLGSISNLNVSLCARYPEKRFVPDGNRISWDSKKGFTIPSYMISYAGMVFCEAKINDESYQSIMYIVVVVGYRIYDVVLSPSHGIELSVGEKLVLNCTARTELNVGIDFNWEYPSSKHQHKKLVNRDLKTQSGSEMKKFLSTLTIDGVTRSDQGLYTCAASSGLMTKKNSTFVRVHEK
Sequence of FLT-1 receptor (RIA of Example 11) (P17948 27-758 limits assumed): as the sequence (P17948 27-758 limits assumed) above
Sequence of KDR receptor (RIA of Example 11) (P35968 20-764 limits assumed): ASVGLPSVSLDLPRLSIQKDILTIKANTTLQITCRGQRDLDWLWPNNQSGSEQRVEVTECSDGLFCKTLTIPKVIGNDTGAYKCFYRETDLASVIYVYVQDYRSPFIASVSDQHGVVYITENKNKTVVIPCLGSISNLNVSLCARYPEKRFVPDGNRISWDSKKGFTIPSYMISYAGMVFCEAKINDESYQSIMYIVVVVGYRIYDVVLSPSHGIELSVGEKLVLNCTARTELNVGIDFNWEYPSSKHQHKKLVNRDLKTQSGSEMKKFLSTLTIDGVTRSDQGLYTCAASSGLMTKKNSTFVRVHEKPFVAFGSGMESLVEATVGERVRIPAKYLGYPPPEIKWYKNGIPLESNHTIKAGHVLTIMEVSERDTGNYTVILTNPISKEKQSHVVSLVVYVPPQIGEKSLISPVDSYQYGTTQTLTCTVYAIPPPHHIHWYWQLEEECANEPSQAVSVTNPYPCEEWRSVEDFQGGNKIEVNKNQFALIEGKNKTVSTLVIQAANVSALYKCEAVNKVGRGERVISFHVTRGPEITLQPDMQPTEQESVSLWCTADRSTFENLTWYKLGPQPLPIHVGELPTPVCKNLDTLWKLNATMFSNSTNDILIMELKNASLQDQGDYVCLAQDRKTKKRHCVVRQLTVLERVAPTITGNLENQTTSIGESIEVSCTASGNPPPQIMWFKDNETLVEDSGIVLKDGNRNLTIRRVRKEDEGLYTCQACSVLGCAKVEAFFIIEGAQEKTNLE

B1: LK-VRB-1s* (ligand)
chain: APMAEGGGQNHHEVVKFEDVLRRSSCHPIETLVDIFQEYPDEIEYIFKPSCVPLMRCGGCCNDEGLECVPTEESNITMQIMRIKPHQGQHIGEMSFLQHNKCECRPKKD
In general, IC50 refers to the concentration at which inhibition is half-maximal. Lower therefore signals greater potency in that assay. As to B1, in assay [1], the “Phosphorylation-Inducing Activity (KIRA), concentration at midpoint” value stood at 1 nM and the “Phosphorylation-Inducing Activity (KIRA), ratio to native VEGF (8-109)” value was 0.5 fold of native VEGF (8-109). Moreover, in assay [2], the “Endothelial Cell Proliferation Activity (HUVEC, 3H-thymidine), concentration” value was found to be 0.1 nM and the “Endothelial Cell Proliferation Activity (HUVEC, 3H-thymidine), ratio to native VEGF (8-109)” value is 0.2 fold of native VEGF (8-109). The “Relative Binding Affinity” value in assay [3] was 20 fold of native VEGF 165. The “Relative Binding Affinity” value in assay [4] was 14000 fold of native VEGF 165. In the assay with Flt-IgG, the IC50 is 2700 nM and the “Relative Binding Affinity” value is 6000 fold of native VEGF (8-109). Further, in the assay with KDR (1-3), the concentration for half-maximal inhibition (IC50) turned out to be 1 nM and the “Relative Binding Affinity” value is 1 fold of native VEGF (8-109).
